Results taken from the supplement of paper PMC11246515.
± gives the standard deviation of the averaged measurements.

Assay: total protein half-life in vivo (active degradation + dilution); higher = more stable protein
[1] = E. coli NCM3722 delta-clpP delta-lon delta-hslV, growth: N-lim chemostat, doubling time 6 h
[2] = E. coli NCM3722 delta-clpP, growth: N-lim chemostat, doubling time 6 h
[3] = E. coli NCM3722 delta-hslV, growth: N-lim chemostat, doubling time 6 h
[4] = E. coli NCM3722 delta-lon, growth: N-lim chemostat, doubling time 6 h
[5] = E. coli NCM3722 delta-smpB, growth: N-lim chemostat, doubling time 6 h
[6] = wild type E. coli NCM3722, growth: C-lim chemostat, doubling time 3 h
[7] = wild type E. coli NCM3722, growth: C-lim chemostat, doubling time 6 h
[8] = wild type E. coli NCM3722, growth: C-lim chemostat, doubling time 12 h
[9] = wild type E. coli NCM3722, growth: N-lim chemostat, doubling time 6 h
[10] = wild type E. coli NCM3722, growth: N-lim chemostat, doubling time 12 h
[11] = wild type E. coli NCM3722, growth: P-lim chemostat, doubling time 6 h
[12] = wild type E. coli NCM3722, growth: P-lim chemostat, doubling time 12 h

Sequence | total protein half-life in vivo [1] [h] | total protein half-life in vivo [2] [h] | total protein half-life in vivo [3] [h] | total protein half-life in vivo [4] [h] | total protein half-life in vivo [5] [h] | total protein half-life in vivo [6] [h] | total protein half-life in vivo [7] [h] | total protein half-life in vivo [8] [h] | total protein half-life in vivo [9] [h] | total protein half-life in vivo [10] [h] | total protein half-life in vivo [11] [h] | total protein half-life in vivo [12] [h]
MLRIADKTFDSHLFTGTGKFASSQLMVEAIRASGSQLVTLAMKRVDLRQHNDAILEPLIAAGVTLLPNTSGAKTAEEAIFAAHLAREALGTNWLKLEIHPDARWLLPDPIETLKAAETLVQQGFVVLPYCGADPVLCKRLEEVGCAAVMPLGAPIGSNQGLETRAMLEIIIQQATVPVVVDAGIGVPSHAAQALEMGADAVLVNTAIAVADDPVNMAKAFRLAVEAGLLARQSGPGSRSYFAHATSPLTGFLEASA | 2.21 ± 0.21 | 1.09 ± 0.22 | 0.8075 ± 0.0064 | 1.093 ± 0.0074 | 0.844 ± 0.015 | 1.59 ± 0.079 | 1.61 ± 0.17 | 1.81 ± 0.88 | 0.928 ± 0.09 | 1.067 ± 0.0049 | 2.01 ± 0.17 | 3.07 ± 0.59
MLRLLEEKIATPLGPLWVICDEQFRLRAVEWEEYSERMVQLLDIHYRKEGYERISATNPGGLSDKLREYFAGNLSIIDTLPTATGGTPFQREVWKTLRTIPCGQVMHYGQLAEQLGRPGAARAVGAANGSNPISIVVPCHRVIGRNGTMTGYAGGVQRKEWLLRHEGYLLL [P0AFH0] | 5.81 ± 0.46 | 4.8 ± 0.28 | 6.05 ± 1.3 | – | 3.86 ± 0.21 | 2.61 | 5.29 ± 0.24 | 10.4 ± 0.61 | 4.55 ± 0.71 | 7.793 ± 0.026 | 5.07 ± 0.087 | 8.9 ± 0.66
MLRMTPLASAIVALLLGIEAYAAEETFDTHFMIGGMKDQQVANIRLDDNQPLPGQYDIDIYVNKQWRGKYEIIVKDNPQETCLSREVIKRLGINSDNFASGKQCLTFEQLVQGGSYTWDIGVFRLDFSVPQAWVEELESGYVPPENWERGINAFYTSYYLSQYYSDYKASGNNKSTYVRFNSGLNLLGWQLHSDASFSKTNNNPGVWKSNTLYLERGFAQLLGTLRVGDMYTSSDIFDSVRFRGVRLFRDMQMLPNSKQNFTPRVQGIAQSNALVTIEQNGFVVYQKEVPPGPFAITDLQLAGGGADLDVSVKEADGSVTTYLVPYAAVPNMLQPGVSKYDLAAGRSHIEGASKQSDFVQAGYQYGFNNLLTLYGGSMVANNYYAFTLGAGWNTRIGAISVDATKSHSKQDNGDVFDGQSYQIAYNKFVSQTSTRFGLAAWRYSSRDYRTFNDHVWANNKDNYRRDENDVYDIADYYQNDFGRKNSFSANMSQSLPEGWGSVSLSTLWRDYWGRSGSSKDYQLSYSNNLRRISYTLAASQAYDENHHEEKRFNIFISIPFDWGDDVSTPRRQIYMSNSTTFDDQGFASNNTGLSGTVGSRDQFNYGVNLSHQHQGNETTAGANLTWNAPVATVNGSYSQSSTYRQAGASVSGGIVAWSGGVNLANRLSETFAVMNAPGIKDAYVNGQKYRTTNRNGVVIYDGMTPYRENHLMLDVSQSDSEAELRGNRKIAAPYRGAVVLVNFDTDQRKPWFIKALRADGQSLTFGYEVNDIHGHNIGVVGQGSQLFIRTNEVPPSVNVAIDKQQGLSCTITFGKEIDESRNYICQ | – | – | – | – | – | – | – | – | – | – | – | 9.63
MLRPVETPTREIKKLDGLWAFSLDRENCGIDQRWWESALQESRAIAVPGSFNDQFADADIRNYAGNVWYQREVFIPKGWAGQRIVLRFDAVTHYGKVWVNNQEVMEHQGGYTPFEADVTPYVIAGKSVRITVCVNNELNWQTIPPGMVITDENGKKKQSYFHDFFNYAGIHRSVMLYTTPNTWVDDITVVTHVAQDCNHASVDWQVVANGDVSVELRDADQQVVATGQGTSGTLQVVNPHLWQPGEGYLYELCVTAKSQTECDIYPLRVGIRSVAVKGEQFLINHKPFYFTGFGRHEDADLRGKGFDNVLMVHDHALMDWIGANSYRTSHYPYAEEMLDWADEHGIVVIDETAAVGFNLSLGIGFEAGNKPKELYSEEAVNGETQQAHLQAIKELIARDKNHPSVVMWSIANEPDTRPQGAREYFAPLAEATRKLDPTRPITCVNVMFCDAHTDTISDLFDVLCLNRYYGWYVQSGDLETAEKVLEKELLAWQEKLHQPIIITEYGVDTLAGLHSMYTDMWSEEYQCAWLDMYHRVFDRVSAVVGEQVWNFADFATSQGILRVGGNKKGIFTRDRKPKSAAFLLQKRWTGMNFGEKPQQGGKQ | – | – | – | – | – | 2.85 ± 0.27 | 5.46 ± 0.52 | 8.91 ± 1.3 | – | – | – | –
MLRVYHSNRLDVLEALMEFIVERERLDDPFEPEMILVQSTGMAQWLQMTLSQKFGIAANIDFPLPASFIWDMFVRVLPEIPKESAFNKQSMSWKLMTLLPQLLEREDFTLLRHYLTDDSDKRKLFQLSSKAADLFDQYLVYRPDWLAQWETGHLVEGLGEAQAWQAPLWKALVEYTHQLGQPRWHRANLYQRFIETLESATTCPPGLPSRVFICGISALPPVYLQALQALGKHIEIHLLFTNPCRYYWGDIKDPAYLAKLLTRQRRHSFEDRELPLFRDSENAGQLFNSDGEQDVGNPLLASWGKLGRDYIYLLSDLESSQELDAFVDVTPDNLLHNIQSDILELENRAVAGVNIEEFSRSDNKRPLDPLDSSITFHVCHSPQREVEVLHDRLLAMLEEDPTLTPRDIIVMVADIDSYSPFIQAVFGSAPADRYLPYAISDRRARQSHPVLEAFISLLSLPDSRFVSEDVLALLDVPVLAARFDITEEGLRYLRQWVNESGIRWGIDDDNVRELELPATGQHTWRFGLTRMLLGYAMESAQGEWQSVLPYDESSGLIAELVGHLASLLMQLNIWRRGLAQERPLEEWLPVCRDMLNAFFLPDAETEAAMTLIEQQWQAIIAEGLGAQYGDAVPLSLLRDELAQRLDQERISQRFLAGPVNICTLMPMRSIPFKVVCLLGMNDGVYPRQLAPLGFDLMSQKPKRGDRSRRDDDRYLFLEALISAQQKLYISYIGRSIQDNSERFPSVLVQELIDYIGQSHYLPGDEALNCDESEARVKAHLTCLHTRMPFDPQNYQPGERQSYAREWLPAASQAGKAHSEFVQPLPFTLPETVPLETLQRFWAHPVRAFFQMRLQVNFRTEDSEIPDTEPFILEGLSRYQINQQLLNALVEQDDAERLFRRFRAAGDLPYGAFGEIFWETQCQEMQQLADRVIACRQPGQSMEIDLACNGVQITGWLPQVQPDGLLRWRPSLLSVAQGMQLWLEHLVYCASGGNGESRLFLRKDGEWRFPPLAAEQALHYLSQLIEGYREGMSAPLLVLPESGGAWLKTCYDAQNDAMLDDDSTLQKARTKFLQAYEGNMMVRGEGDDIWYQRLWRQLTPETMEAIVEQSQRFLLPLFRFNQS | 5.23 ± 0.17 | 4.28 ± 0.21 | 3.58 ± 0.068 | 4.13 ± 0.12 | 3.63 ± 0.41 | 3.44 ± 0.61 | 5.57 ± 0.32 | 13 ± 2.4 | 4.32 ± 0.95 | 6.21 ± 0.64 | 6.1 ± 0.47 | 11.3 ± 0.4
MLSKQIPLGIYEKALPAGECWLERLQLAKTLGFDFVEMSVDETDDRLSRLNWSREQRLALVNAIVETGVRVPSMCLSAHRRFPLGSEDDAVRAQGLEIMRKAIQFAQDVGIRVIQLAGYDVYYQEANNETRRRFRDGLKESVEMASRAQVTLAMEIMDYPLMSSISKALGYAHYLNNPWFQLYPDIGNLSAWDNDVQMELQAGIGHIVAVHVKDTKPGVFKNVPFGEGVVDFERCFETLKQSGYCGPYLIEMWSETAEDPAAEVAKARDWVKARMAKAGMVEAA | 5.97 | – | – | – | – | – | – | – | – | – | – | –
MLSPLLKRYTWNSAWLYYARIFIALCGTTAFPWWLGDVKLTIPLTLGMVAAALTDLDDRLAGRLRNLIITLFCFFIASASVELLFPWPWLFAIGLTLSTSGFILLGGLGQRYATIAFGALLIAIYTMLGTSLYEHWYQQPMYLLAGAVWYNVLTLIGHLLFPVRPLQDNLARCYEQLARYLELKSRMFDPDIEDQSQAPLYDLALANGLLMATLNQTKLSLLTRLRGDRGQRGTRRTLHYYFVAQDIHERASSSHIQYQTLREHFRHSDVLFRFQRLMSMQGQACQQLSRCILLRQPYQHDPHFERAFTHIDAALERMRDNGAPADLLKTLGFLLNNLRAIDAQLATIESEQAQALPHNNDENELADDSPHGLSDIWLRLSRHFTPESALFRHAVRMSLVLCFGYAIIQITGMHHGYWILLTSLFVCQPNYNATRHRLKLRIIGTLVGIAIGIPVLWFVPSLEGQLVLLVITGVLFFAFRNVQYAHATMFITLLVLLCFNLLGEGFEVALPRVIDTLIGCAIAWAAVSYIWPDWQFRNLPRMLERATEANCRYLDAILEQYHQGRDNRLAYRIARRDAHNRDAELASVVSNMSSEPNVTPQIREAAFRLLCLNHTFTSYISALGAHREQLTNPEILAFLDDAVCYVDDALHHQPADEERVNEALASLKQRMQQLEPRADSKEPLVVQQVGLLIALLPEIGRLQRQITQVPQETPVSA | 5.89 | 5.69 | – | – | 5.95 ± 0.25 | 3.21 ± 0.3 | – | > 16 | 5.03 ± 1.3 | 13.4 | 6.49 ± 0.13 | –
MLSRHINYFLAVAEHGSFTRAASALHVSQPALSQQIRQLEESLGVPLFDRSGRTIRLTDAGEVWRQYASRALQELGAGKRAIHDVADLTRGSLRIAVTPTFTSYFIGPLMADFYARYPSITLQLQEMSQEKIEDMLCRDELDVGIAFAPVHSPELEAIPLLTESLALVVAQHHPLAVHEQVALSRLHDEKLVLLSAEFATREQIDHYCEKAGLHPQVVIEANSISAVLELIRRTSLSTLLPAAIATQHDGLKAISLAPPLLERTAVLLRRKNSWQTAAAKAFLHMALDKCAVVGGNESR | 5.07 ± 0.31 | – | – | 6.84 | – | 2.02 ± 0.18 | 4.75 ± 0.2 | 6.21 | – | 12.6 | 5.54 | 5.16 ± 2
